According to paper PMC5241339:
Several values for one entry are separate records, joined by “and”; a condition that tells them apart may be missing. Identical values can stand only once.

Legend:
[1] = target: receptor for advanced glycation endproducts (RAGE) on CHO-RAGE cells (UniProt Q15109); test: cell binding of a fluorescent tracer (fluorescence of cell lysates, plate reader); CHO cell lines in 24-well plates incubated with 10 µM fluorescein-rS100A12 for 90 min at 37 °C, lysed, fluorescence per protein; blocking with anti-CD36 antibody FA6-152 10 µg/mL, 30 min before
CD36 on CHO-CD36 cells [2] = target: CD36 on CHO-CD36 cells (UniProt P16671); test: as above
[3] = target: CD36 (His-tagged recombinant human protein, Sino Biological, Life technologies, 70-80 kDa) (human) (UniProt P16671); test: SPR; Biacore T100; CD36 immobilized by amine coupling on a C1 chip (1000 RU); S100A12 species as analyte 0.62-50.0 nM, single cycle kinetics, 30 µL/min, 25 °C; HBS-P+ with 350 µM CaCl2; two-state reaction model
[4] = target: receptor for advanced glycation endproducts (RAGE) on CHO-RAGE cells (UniProt Q15109); test: radioligand binding; CHO cell lines incubated with [18F]FB-rS100A12 in PBS++ for 90 min at 37 °C, lysed, gamma counter, % ID per protein; blocking with 15-fold excess of rS100A12 or anti-CD36 antibody FA6-152 added 20 min before
CD36 on CHO-CD36 cells [5] = target: CD36 on CHO-CD36 cells (UniProt P16671); test: as above

Chain of CD36 (His-tagged recombinant human protein, Sino Biological, Life technologies, 70-80 kDa) (human) (P16671 30-439): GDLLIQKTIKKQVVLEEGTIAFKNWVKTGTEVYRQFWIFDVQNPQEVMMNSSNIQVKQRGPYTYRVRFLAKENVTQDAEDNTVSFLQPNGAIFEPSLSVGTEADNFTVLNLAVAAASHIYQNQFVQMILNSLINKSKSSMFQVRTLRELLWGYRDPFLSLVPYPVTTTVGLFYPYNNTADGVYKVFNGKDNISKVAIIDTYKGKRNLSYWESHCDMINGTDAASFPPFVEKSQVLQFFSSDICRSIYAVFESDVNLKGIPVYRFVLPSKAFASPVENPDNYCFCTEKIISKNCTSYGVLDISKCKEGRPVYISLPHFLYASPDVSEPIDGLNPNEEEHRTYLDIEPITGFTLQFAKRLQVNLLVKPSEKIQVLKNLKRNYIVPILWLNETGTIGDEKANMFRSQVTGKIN
Chain of 4-[18F]fluorobenzoyl-rS100A12 ([18F]FB-rS100A12) (natural protein) (P80511 2-92): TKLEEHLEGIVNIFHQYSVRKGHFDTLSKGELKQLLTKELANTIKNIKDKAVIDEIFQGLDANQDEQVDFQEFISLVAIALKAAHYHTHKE
Chain of receptor for advanced glycation endproducts (RAGE) on CHO-RAGE cells (Q15109 23-404): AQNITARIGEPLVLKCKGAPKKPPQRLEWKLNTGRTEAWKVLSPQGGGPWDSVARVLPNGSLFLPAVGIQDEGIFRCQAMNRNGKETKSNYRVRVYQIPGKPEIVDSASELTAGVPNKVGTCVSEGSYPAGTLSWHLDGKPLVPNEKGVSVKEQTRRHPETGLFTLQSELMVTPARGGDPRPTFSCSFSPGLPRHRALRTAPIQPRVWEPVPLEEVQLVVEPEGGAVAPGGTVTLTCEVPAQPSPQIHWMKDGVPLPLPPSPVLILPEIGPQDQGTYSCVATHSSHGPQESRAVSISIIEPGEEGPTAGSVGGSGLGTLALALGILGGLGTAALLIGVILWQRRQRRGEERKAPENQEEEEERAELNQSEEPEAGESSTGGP
Chain of CD36 on CHO-CD36 cells (P16671 whole entry): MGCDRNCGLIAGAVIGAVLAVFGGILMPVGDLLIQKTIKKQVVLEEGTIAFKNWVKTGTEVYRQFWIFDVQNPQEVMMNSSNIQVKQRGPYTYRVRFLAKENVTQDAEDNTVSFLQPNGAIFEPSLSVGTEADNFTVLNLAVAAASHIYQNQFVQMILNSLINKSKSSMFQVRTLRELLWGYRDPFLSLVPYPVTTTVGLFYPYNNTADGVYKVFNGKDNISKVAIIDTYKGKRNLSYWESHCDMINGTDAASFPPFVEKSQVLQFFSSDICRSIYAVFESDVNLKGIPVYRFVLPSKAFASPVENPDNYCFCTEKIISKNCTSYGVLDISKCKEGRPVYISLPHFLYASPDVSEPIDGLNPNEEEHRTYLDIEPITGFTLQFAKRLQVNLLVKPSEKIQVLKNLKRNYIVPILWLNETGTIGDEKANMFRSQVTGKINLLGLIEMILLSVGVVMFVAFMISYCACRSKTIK

Substance | binding higher than in CHO-K1 cells [1] | binding higher than in CHO-K1 cells (CD36 on CHO-CD36 cells [2]) | Kd [3] | cell association higher than in CHO-K1 cells [4] | cell association higher than in CHO-K1 cells (CD36 on CHO-CD36 cells [5])
fluorescein-labeled rS100A12 (natural protein) | 50% | 30% | 4790 pM |  | 
4-[18F]fluorobenzoyl-rS100A12 ([18F]FB-rS100A12) (natural protein) |  |  |  | 40% | 20%
recombinant S100A12 (rS100A12) (natural protein) |  |  | 670 pM and 990 pM |  | 
